Data published in PMC6650244.

Experiments:
[1] = target: CDK9 (cyclin-dependent kinase 9) (UniProt Q99J95); experiment: co-immunoprecipitation (IP: BMAL1) with immunoblot, chemiluminescence band intensity; details: nuclear extracts, synchronized fibroblasts 24 hr after Dex, scale: relative band intensity
[2] = target: BRD4 (bromodomain-containing protein 4) (UniProt Q9ESU6); experiment: as above; details: nuclear extracts, synchronized fibroblasts 24 hr after Dex, scale: relative band intensity
[3] = highest amount of IP (two-fold dilution series, lane 3 of 3)
[4] = lowest amount of IP (two-fold dilution series, lane 1 of 3)
[5] = middle amount of IP (two-fold dilution series, lane 2 of 3)

## BMAL1 (brain and muscle ARNT-like protein 1) K538R
[1]; [3]
  response: 0.07
[1]; [4]
  response: 0.01
[1]; [5]
  response: 0.03
[2]; [3]
  response: 0.1
[2]; [4]
  response: 0.02
[2]; [5]
  response: 0.06
